Measured values reported in patent US20100297606A1 (KAGOSHIMA UNIVERSITY, published 2010).
Positions of bridges follow the written chain, without caps; N, C: chain ends. No end group written: not given here. *: point of attachment. Biotin = O=C1N[C@H]2[C@H](CS[C@H]2CCCCC(=O)*)N1

Columns and labels:
[1] = target: T1, human serum albumin (human, UniProt P02768 25-609); assay: ELISA on coated protein; biotinylated peptide premixed 4:1 with SA-AP; absorbance
T1 construct: Control protein; also called HSA
Description: (§1) The binding activity of the thus obtained biotinylated synthetic peptides to human IgG was assayed by an ELISA assay. […] Specifically, wells coated with human IgG (100 ng/50 μl/well) were blocked by the addition of 0.5% BSA. A biotinylated synthetic peptide and alkaline phosphatase-labeled streptavidin (SA-AP) were mixed in advance at a molar ratio of 4:1 and then the mixture was added to the well, followed by 1 hour of reaction. Para-nitrophenyl phosphate (Wako) was used for color development. Detection was carried out by measuring absorbance at 405 nm. As a positive control of human IgG, the Fc fragment of hIgG was used. As other control proteins, human IgA and IgE, mouse IgG, IgA, and IgE, hTF, fetal bovine serum (FBS), HSA, BSA, and gelatin were used.

[2] = target: T2, bovine serum albumin (bovine, UniProt P02769 25-607); assay: as above
T2 construct: Control protein; also called BSA
Description: as §1

[3] = target: T3, human transferrin (human, UniProt P02787 20-698); assay: as above
T3 construct: Control protein; also called hTF; ThF
Description: as §1

[4] = target: T4, polyclonal human IgG antibody (serum-derived) (human); assay: SPR (BIAcore2000, 25 C), biotinylated peptide on SA chip, human IgG as analyte (41 to 660 nM)
T4 construct: also called hIgG
Description: SPR analysis was carried out using BIAcore2000 (BIAcore) at 25° C. Necessary reagents and sensor chips were purchased from BIAcore and then used. […] The amount of each peptide to be immobilized was adjusted so that the RU (response unit) ranged from 1500 to 2000. […] Binding reaction between human IgG and the peptides was measured. Thereafter, washing with running buffer (HBS-T) was conducted and then dissociation reaction was measured. For washing/elution of bound analytes from the sensor chips, 0.2 M glycine-HCl buffer (pH 2.7) was used. Binding parameters were analyzed using BIA evaluation Version 3.2 software.

[5] = target: T5, anti-HER2 human antibody (Herceptin), acid-treated; assay: SPR, peptides on sensor chips, antibody 250 nM; acid treatment pH 2.1, 20 C, 10 min; reference Fc-III peptide
T5 construct: Same antibody as m38 after acid treatment and neutralisation; also called acid-treated anti-HER2 human IgG; acid-denatured anti-HER2 human IgG
Description: (§2) For this SPR analysis, human IgG samples were prepared via acid treatment under various conditions as described below and then tested. […] Subsequently, 30 μl (or 20 μl for a sample to which glycine-HCl with pH 2.7 had been added) of 1 M Tris-HCl (pH 8.7) was added to each solution for neutralization.

[6] = target: T5, anti-HER2 human antibody (Herceptin), …; assay: SPR, peptides on sensor chips, antibody 250 nM; acid treatment pH 2.1, 40 C, 10 min; reference Fc-III peptide
Description: as §2

[7] = target: T5, anti-HER2 human antibody (Herceptin), …; assay: SPR, peptides on sensor chips, antibody 250 nM; acid treatment pH 2.7, 20 C, 10 min; reference Fc-III peptide
Description: as §2

[8] = target: T5, anti-HER2 human antibody (Herceptin), …; assay: SPR, peptides on sensor chips, antibody 250 nM; acid treatment pH 2.7, 30 C, 10 min; reference Fc-III peptide
Description: as §2

[9] = target: T5, anti-HER2 human antibody (Herceptin), …; assay: SPR, peptides on sensor chips, antibody 250 nM; acid treatment pH 2.7, 40 C, 10 min; reference Fc-III peptide
Description: as §2

T3 sequence (P02787 20-698 limits assumed): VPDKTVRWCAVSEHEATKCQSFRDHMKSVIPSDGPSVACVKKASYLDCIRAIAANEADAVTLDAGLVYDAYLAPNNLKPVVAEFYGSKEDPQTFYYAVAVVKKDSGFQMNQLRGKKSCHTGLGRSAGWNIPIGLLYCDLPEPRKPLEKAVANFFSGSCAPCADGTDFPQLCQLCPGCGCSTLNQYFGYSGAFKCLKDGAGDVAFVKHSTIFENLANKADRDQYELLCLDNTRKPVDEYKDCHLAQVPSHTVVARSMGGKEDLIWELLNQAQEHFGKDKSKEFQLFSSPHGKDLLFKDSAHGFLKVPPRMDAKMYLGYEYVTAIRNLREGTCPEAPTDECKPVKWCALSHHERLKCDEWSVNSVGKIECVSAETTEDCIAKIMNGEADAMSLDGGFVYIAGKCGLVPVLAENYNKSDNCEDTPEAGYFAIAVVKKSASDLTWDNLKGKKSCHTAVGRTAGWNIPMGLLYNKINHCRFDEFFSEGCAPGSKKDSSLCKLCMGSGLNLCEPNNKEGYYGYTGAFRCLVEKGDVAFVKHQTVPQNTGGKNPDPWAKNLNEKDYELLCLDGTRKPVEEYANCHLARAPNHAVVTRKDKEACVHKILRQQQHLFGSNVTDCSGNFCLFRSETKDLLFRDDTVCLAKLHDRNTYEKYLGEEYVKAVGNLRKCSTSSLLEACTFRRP
T2 sequence (P02769 25-607 limits assumed): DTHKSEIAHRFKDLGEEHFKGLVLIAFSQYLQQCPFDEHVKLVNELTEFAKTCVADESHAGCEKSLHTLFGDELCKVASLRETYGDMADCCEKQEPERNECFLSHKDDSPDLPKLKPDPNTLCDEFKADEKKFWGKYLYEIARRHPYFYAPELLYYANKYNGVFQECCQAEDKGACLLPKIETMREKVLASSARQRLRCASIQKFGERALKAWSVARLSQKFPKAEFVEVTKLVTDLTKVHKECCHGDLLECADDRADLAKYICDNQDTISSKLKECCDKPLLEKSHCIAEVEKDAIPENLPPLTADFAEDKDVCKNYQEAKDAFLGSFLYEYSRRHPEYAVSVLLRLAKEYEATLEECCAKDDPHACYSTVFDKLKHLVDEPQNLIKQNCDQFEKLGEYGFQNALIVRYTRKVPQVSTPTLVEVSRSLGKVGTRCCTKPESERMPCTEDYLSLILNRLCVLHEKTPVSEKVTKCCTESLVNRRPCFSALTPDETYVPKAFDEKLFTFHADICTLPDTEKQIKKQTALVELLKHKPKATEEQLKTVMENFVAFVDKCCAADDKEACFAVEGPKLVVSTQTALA

B1: synthetic peptide IMGpep-1CS (peptide)
peptide: {Biotin-LC}-GSGYWRSEWGLSG
notes: Both Cys of IMGpep-1 replaced by Ser; linear control peptide; also called biotinylated IMGpep-1CS
- binding result [1]: no binding
- binding result [2]: no binding
- binding result [3]: no binding

Binder: {Biotin-LC}-GCGYWRSEWGLCG (disulfide 2-12 (inferred), also called biotinylated IMGpep-1) [synthetic peptide IMGpep-1]
- Kd [4]: 17 nM
- koff [4]: 0.00034 s⁻¹
- kon [4]: 20000 M⁻¹ s⁻¹
- binding result [2]: no binding
- binding result [3]: no binding

Binder: {Biotin-LC}-GCGYWRSQWGLCG (disulfide 2-12 (inferred), also called biotinylated IMGpep-1E6Q) [synthetic peptide IMGpep-1E6Q]
- Kd [4]: 21 nM
- koff [4]: 0.00031 s⁻¹
- kon [4]: 15000 M⁻¹ s⁻¹
- binding result [1]: no binding
- binding result [2]: no binding
- binding result [3]: no binding

Binder: {Biotin-LC}-GCTGYWPKAWGLCG (disulfide 2-13 (inferred), also called biotinylated IMGpep-4) [synthetic peptide IMGpep-4]
- Kd [4]: 28 nM
- koff [4]: 0.00041 s⁻¹
- kon [4]: 14000 M⁻¹ s⁻¹
- binding result [1]: no binding
- binding result [2]: no binding
- binding result [3]: no binding

Binder: GCTGYWPRAWGLCG (disulfide 2-13 (inferred); not fully specified (N-terminus), also called biotinylated IMGpep-4K6R) [synthetic peptide IMGpep-4K6R]
- generation rate of acid-denatured IgG (ratio a/b of the SPR response on the IMGpep-4K6R chip to that on the Fc-III chip) [5]: 7.8%
- Kd [4]: 24 nM
- generation rate of acid-denatured IgG (ratio a/b of the SPR response on the IMGpep-4K6R chip to that on the Fc-III chip) [6]: ~40%
- binding result [1]: no binding
- binding result [2]: no binding
- binding result [3]: no binding
- generation rate of acid-denatured IgG (ratio a/b of the SPR response on the IMGpep-4K6R chip to that on the Fc-III chip) [7]: ~5%
- generation rate of acid-denatured IgG (ratio a/b of the SPR response on the IMGpep-4K6R chip to that on the Fc-III chip) [8]: 9.7%
- generation rate of acid-denatured IgG (ratio a/b of the SPR response on the IMGpep-4K6R chip to that on the Fc-III chip) [9]: 40%
